Values joined by “and” are separate entries in the source; they are usually repeats but may differ in a detail not shown here. Equal values may be shown once.
Key:
[1] = biological target: LFA-1 disulfide mutant #2 (αL E1061C / β2 G676C) on 293T cells (UniProt P20701); test: flow cytometry (FACS), LFA-1 on transfected 293T cells
[2] = biological target: LFA-1 disulfide mutant #3 (αL K1062C / β2 G676C) on 293T cells (UniProt P20701); test: as above
[3] = biological target: LFA-1 disulfide mutant #4 (αL Q1063C / β2 G676C) on 293T cells (UniProt P20701); test: as above
Sequence of LFA-1 disulfide mutant #4 (αL Q1063C / β2 G676C) on 293T cells (P20701 26-1170 Q1088C, chain 1 of 2): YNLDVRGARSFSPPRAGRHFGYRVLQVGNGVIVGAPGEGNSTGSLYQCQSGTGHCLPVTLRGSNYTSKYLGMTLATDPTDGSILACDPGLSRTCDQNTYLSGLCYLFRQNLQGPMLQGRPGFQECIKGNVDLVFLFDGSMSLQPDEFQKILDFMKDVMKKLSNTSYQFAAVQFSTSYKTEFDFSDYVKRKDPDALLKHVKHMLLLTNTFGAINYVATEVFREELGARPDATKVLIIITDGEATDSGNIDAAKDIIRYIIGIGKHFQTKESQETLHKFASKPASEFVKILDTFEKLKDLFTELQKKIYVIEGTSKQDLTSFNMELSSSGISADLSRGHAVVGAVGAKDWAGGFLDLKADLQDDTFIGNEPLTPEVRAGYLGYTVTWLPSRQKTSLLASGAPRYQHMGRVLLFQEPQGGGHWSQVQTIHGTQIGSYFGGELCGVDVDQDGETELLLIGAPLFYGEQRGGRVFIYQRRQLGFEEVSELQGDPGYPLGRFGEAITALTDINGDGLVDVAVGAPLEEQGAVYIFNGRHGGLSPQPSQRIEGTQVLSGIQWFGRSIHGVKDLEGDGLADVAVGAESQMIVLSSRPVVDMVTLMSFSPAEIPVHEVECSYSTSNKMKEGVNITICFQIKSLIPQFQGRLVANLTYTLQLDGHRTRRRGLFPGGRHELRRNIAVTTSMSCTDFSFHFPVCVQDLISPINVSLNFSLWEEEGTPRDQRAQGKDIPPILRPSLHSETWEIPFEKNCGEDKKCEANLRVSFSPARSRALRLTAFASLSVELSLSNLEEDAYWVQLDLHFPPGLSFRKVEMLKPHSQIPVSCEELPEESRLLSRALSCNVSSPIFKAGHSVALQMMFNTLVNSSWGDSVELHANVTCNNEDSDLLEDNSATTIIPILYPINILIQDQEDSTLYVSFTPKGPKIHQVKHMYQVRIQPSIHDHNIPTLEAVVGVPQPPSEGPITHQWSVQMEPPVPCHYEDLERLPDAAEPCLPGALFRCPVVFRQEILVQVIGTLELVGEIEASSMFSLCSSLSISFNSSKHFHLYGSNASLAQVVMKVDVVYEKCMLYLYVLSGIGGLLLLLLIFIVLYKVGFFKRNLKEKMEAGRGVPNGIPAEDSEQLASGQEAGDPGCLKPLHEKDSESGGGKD
Sequence of LFA-1 disulfide mutant #4 (αL Q1063C / β2 G676C) on 293T cells (P05107 23-769 G698C, chain 2 of 2, further chain): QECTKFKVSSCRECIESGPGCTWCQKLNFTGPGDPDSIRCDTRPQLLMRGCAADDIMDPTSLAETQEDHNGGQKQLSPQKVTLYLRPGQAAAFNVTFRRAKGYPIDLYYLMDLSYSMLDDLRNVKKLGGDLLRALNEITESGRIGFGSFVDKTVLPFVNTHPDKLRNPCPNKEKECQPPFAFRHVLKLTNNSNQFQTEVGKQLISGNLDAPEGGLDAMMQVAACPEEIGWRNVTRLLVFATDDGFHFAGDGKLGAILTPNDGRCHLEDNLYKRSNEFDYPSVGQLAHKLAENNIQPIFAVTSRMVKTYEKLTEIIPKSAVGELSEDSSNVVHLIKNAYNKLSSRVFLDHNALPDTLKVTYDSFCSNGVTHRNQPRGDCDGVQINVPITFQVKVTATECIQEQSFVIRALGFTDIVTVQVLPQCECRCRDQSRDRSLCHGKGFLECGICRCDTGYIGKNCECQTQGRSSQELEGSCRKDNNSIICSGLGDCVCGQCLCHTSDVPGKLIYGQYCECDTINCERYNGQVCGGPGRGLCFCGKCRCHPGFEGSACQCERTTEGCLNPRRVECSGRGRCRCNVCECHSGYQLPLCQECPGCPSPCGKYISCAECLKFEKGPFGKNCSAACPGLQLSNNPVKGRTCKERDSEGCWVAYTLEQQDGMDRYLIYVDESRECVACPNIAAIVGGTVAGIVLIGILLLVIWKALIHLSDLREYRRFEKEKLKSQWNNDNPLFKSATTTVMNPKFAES

[4] = biological target: LFA-1 disulfide mutant #5 (αL K1062C / β2 P677C) on 293T cells (UniProt P20701); test: as above
Sequence of LFA-1 disulfide mutant #5 (αL K1062C / β2 P677C) on 293T cells (P20701 26-1170 K1087C, chain 1 of 2): as the sequence (P20701 26-1170 Q1088C, chain 1 of 2) above, with K1062C, C1063Q counted along it
Sequence of LFA-1 disulfide mutant #5 (αL K1062C / β2 P677C) on 293T cells (P05107 23-769 P699C, chain 2 of 2, further chain): as the sequence (P05107 23-769 G698C, chain 2 of 2, further chain) above, with C676G, P677C counted along it

[5] = biological target: LFA-1 disulfide mutant #6 (αL Q1063C / β2 P677C) on 293T cells (UniProt P20701); test: as above
Sequence of LFA-1 disulfide mutant #6 (αL Q1063C / β2 P677C) on 293T cells (P20701 26-1170 Q1088C, chain 1 of 2): as the sequence (P20701 26-1170 Q1088C, chain 1 of 2) above
Sequence of LFA-1 disulfide mutant #6 (αL Q1063C / β2 P677C) on 293T cells (P05107 23-769 P699C, chain 2 of 2, further chain): as the sequence (P05107 23-769 G698C, chain 2 of 2, further chain) above, with C676G, P677C counted along it

[6] = biological target: LFA-1 disulfide mutant #7 (αL M1064C / β2 P677C) on 293T cells (UniProt P20701); test: as above
Sequence of LFA-1 disulfide mutant #7 (αL M1064C / β2 P677C) on 293T cells (P20701 26-1170 M1089C, chain 1 of 2): as the sequence (P20701 26-1170 Q1088C, chain 1 of 2) above, with C1063Q, M1064C counted along it
Sequence of LFA-1 disulfide mutant #7 (αL M1064C / β2 P677C) on 293T cells (P05107 23-769 P699C, chain 2 of 2, further chain): as the sequence (P05107 23-769 G698C, chain 2 of 2, further chain) above, with C676G, P677C counted along it

[7] = biological target: LFA-1 disulfide mutant #8 (αL Q1063C / β2 N678C) on 293T cells (UniProt P20701); test: as above
Sequence of LFA-1 disulfide mutant #8 (αL Q1063C / β2 N678C) on 293T cells (P20701 26-1170 Q1088C, chain 1 of 2): as the sequence (P20701 26-1170 Q1088C, chain 1 of 2) above
Sequence of LFA-1 disulfide mutant #8 (αL Q1063C / β2 N678C) on 293T cells (P05107 23-769 N700C, chain 2 of 2, further chain): as the sequence (P05107 23-769 G698C, chain 2 of 2, further chain) above, with C676G, N678C counted along it

[8] = biological target: LFA-1 disulfide mutant #9 (αL M1064C / β2 N678C) on 293T cells (UniProt P20701); test: as above
Sequence of LFA-1 disulfide mutant #9 (αL M1064C / β2 N678C) on 293T cells (P20701 26-1170 M1089C, chain 1 of 2): as the sequence (P20701 26-1170 Q1088C, chain 1 of 2) above, with C1063Q, M1064C counted along it
Sequence of LFA-1 disulfide mutant #9 (αL M1064C / β2 N678C) on 293T cells (P05107 23-769 N700C, chain 2 of 2, further chain): as the sequence (P05107 23-769 G698C, chain 2 of 2, further chain) above, with C676G, N678C counted along it

[9] = biological target: wild-type LFA-1 (αLβ2) on 293T cells (UniProt P20701); test: as above
Sequence of wild-type LFA-1 (αLβ2) on 293T cells (P20701 26-1170 limits assumed, chain 1 of 2): as the sequence (P20701 26-1170 Q1088C, chain 1 of 2) above, with C1063Q counted along it
Sequence of wild-type LFA-1 (αLβ2) on 293T cells (P05107 23-769 limits assumed, chain 2 of 2, further chain): as the sequence (P05107 23-769 G698C, chain 2 of 2, further chain) above, with C676G counted along it

[10] = biological target: wild-type LFA-1 (αLβ2) on 293T cells (UniProt P20701); test: flow cytometry (FACS), LFA-1 on transfected 293T cells; the reference itself
[11] = biological target: LFA-1 disulfide mutant #2 (αL E1061C / β2 G676C) on 293T cells (UniProt P20701); test: flow cytometry (FACS), LFA-1 on transfected 293T cells; reference wild-type LFA-1
[12] = biological target: LFA-1 disulfide mutant #3 (αL K1062C / β2 G676C) on 293T cells (UniProt P20701); test: as above
[13] = biological target: LFA-1 disulfide mutant #4 (αL Q1063C / β2 G676C) on 293T cells (UniProt P20701); test: as above
[14] = biological target: LFA-1 disulfide mutant #5 (αL K1062C / β2 P677C) on 293T cells (UniProt P20701); test: as above
[15] = biological target: LFA-1 disulfide mutant #6 (αL Q1063C / β2 P677C) on 293T cells (UniProt P20701); test: as above
[16] = biological target: LFA-1 disulfide mutant #7 (αL M1064C / β2 P677C) on 293T cells (UniProt P20701); test: as above
[17] = biological target: LFA-1 disulfide mutant #8 (αL Q1063C / β2 N678C) on 293T cells (UniProt P20701); test: as above
[18] = biological target: LFA-1 disulfide mutant #9 (αL M1064C / β2 N678C) on 293T cells (UniProt P20701); test: as above

Sequence of LFA-1 disulfide mutant #2 (αL E1061C / β2 G676C) on 293T cells (P20701 26-1170 E1086C, chain 1 of 2): as the sequence (P20701 26-1170 Q1088C, chain 1 of 2) above, with E1061C, C1063Q counted along it
Sequence of LFA-1 disulfide mutant #2 (αL E1061C / β2 G676C) on 293T cells (P05107 23-769 G698C, chain 2 of 2, further chain): as the sequence (P05107 23-769 G698C, chain 2 of 2, further chain) above
Sequence of LFA-1 disulfide mutant #3 (αL K1062C / β2 G676C) on 293T cells (P20701 26-1170 K1087C, chain 1 of 2): as the sequence (P20701 26-1170 Q1088C, chain 1 of 2) above, with K1062C, C1063Q counted along it
Sequence of LFA-1 disulfide mutant #3 (αL K1062C / β2 G676C) on 293T cells (P05107 23-769 G698C, chain 2 of 2, further chain): as the sequence (P05107 23-769 G698C, chain 2 of 2, further chain) above

Substance	Mean (FACS mean fluorescence) [1]	Mean value normalized with expression level (MHM24) [1]	Mean (FACS mean fluorescence) [2]	Mean value normalized with expression level (MHM24) [2]	Mean (FACS mean fluorescence) [3]	Mean value normalized with expression level (MHM24) [3]	Mean (FACS mean fluorescence) [4]	Mean value normalized with expression level (MHM24) [4]	Mean (FACS mean fluorescence) [5]	Mean value normalized with expression level (MHM24) [5]	Mean (FACS mean fluorescence) [6]	Mean value normalized with expression level (MHM24) [6]	Mean (FACS mean fluorescence) [7]	Mean (FACS mean fluorescence) [8]	Mean value normalized with expression level (MHM24) [8]	Mean (FACS mean fluorescence) [9]	Mean value normalized with expression level (MHM24) [9]	normalized mean relative to wild-type (WT is set to 1.0) [10]	normalized mean relative to wild-type (WT is set to 1.0) [11]	normalized mean relative to wild-type (WT is set to 1.0) [12]	further results
KIM127 (antibody)	8.27 and 9.59	0.016 and 0.044	11.1 and 15.8	0.039 and 0.093	12.1 and 12.2	0.06 and 0.074	10.3 and 9.36	0.036 and 0.04	10.9 and 14.4	0.037 and 0.08	10.8 and 11.8	0.033 and 0.053	8.54 and 12.2	10 and 12.1	0.023 and 0.047	12.2 and 13.9	0.035 and 0.055	1	0.46 and 0.81	1.12 and 1.69	normalized mean relative to wild-type (WT is set to 1.0) [13]: 1.69 and 1.35; normalized mean relative to wild-type (WT is set to 1.0) [14]: 1.03 and 0.73; normalized mean relative to wild-type (WT is set to 1.0) [15]: 1.06 and 1.47; normalized mean relative to wild-type (WT is set to 1.0) [16]: 0.95 and 0.96; normalized mean relative to wild-type (WT is set to 1.0) [17]: 0.61 and 1.49; normalized mean relative to wild-type (WT is set to 1.0) [18]: 0.66 and 0.85
MHM24 (antibody)	97.4	–	117	–	95.9	–	102	–	117	–	126	–	88.5	147	–	–	–	–	–	–	–
X63 (antibody)	–	–	–	–	–	–	–	–	–	–	–	–	–	4.06	–	5.96	–	–	–	–	–
m24 (antibody)	35.8	0.33	57.4	0.46	47.8	0.46	43.5	0.39	52.3	0.42	53	0.39	38.6	57.1	0.36	66.3	0.39	1	0.83	1.17	Mean value normalized with expression level (MHM24) [7]: 0.4; normalized mean relative to wild-type (WT is set to 1.0) [13]: 1.18; normalized mean relative to wild-type (WT is set to 1.0) [14]: 0.99; normalized mean relative to wild-type (WT is set to 1.0) [15]: 1.06; normalized mean relative to wild-type (WT is set to 1.0) [16]: 0.99; normalized mean relative to wild-type (WT is set to 1.0) [17]: 1; normalized mean relative to wild-type (WT is set to 1.0) [18]: 0.92
